The values below are quoted from earlier work in paper PMC10871162.

Like-named read-outs stand apart in the source and are kept apart here.

Data set [1] addresses myosin IIA peptide (Homo sapiens) (UniProt P35579).
For data set [2], the target named is nonmuscle myosin IIA mysIIA peptide (Homo sapiens) (UniProt P35579).
The target in data set [3] is TRTK-12 (CapZ peptide) (Homo sapiens) (UniProt P52907).
The target of data set [4] is RyR peptide RyR peptide (Homo sapiens) (UniProt P21817).
Data set [5] has as its target TRTK-12 (CapZ peptide) (Homo sapiens) (UniProt P52907). The source holds these as a separate data set.
A further data set has as its target RIIβ peptide (UniProt P31323).
In another data set the target is RyR peptide (UniProt P21817).

Chain of UniProt P31323 (P31323 whole entry): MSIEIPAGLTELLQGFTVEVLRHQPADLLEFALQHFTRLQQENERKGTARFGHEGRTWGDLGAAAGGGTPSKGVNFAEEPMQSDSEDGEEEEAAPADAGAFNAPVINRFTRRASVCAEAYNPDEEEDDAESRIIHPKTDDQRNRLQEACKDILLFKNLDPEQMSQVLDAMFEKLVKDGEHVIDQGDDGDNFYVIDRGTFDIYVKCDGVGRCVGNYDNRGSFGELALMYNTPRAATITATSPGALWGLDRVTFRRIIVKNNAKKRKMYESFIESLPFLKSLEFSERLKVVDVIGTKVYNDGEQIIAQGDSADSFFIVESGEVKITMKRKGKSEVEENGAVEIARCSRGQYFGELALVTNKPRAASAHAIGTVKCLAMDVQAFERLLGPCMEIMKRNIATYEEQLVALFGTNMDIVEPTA

What is called Kd is the free concentration of one partner at which half of the binding sites on the other are occupied at equilibrium, for simple one-to-one binding. Turning to S100A4 (from UniProt P26447), the Kd in data set [1] and in data set [2] was under 0.001 µM each time.

With S100B (from UniProt P04271), the Kd in data set [3] was 2.9 µM.

On to S100A1 (from UniProt P23297), for which the Kd in data set [4] was 8 µM; in data set [5] it was 23 µM; in the data set with RIIβ peptide, 2 µM; with RyR peptide it was 8 µM.
